Target: SARS-CoV-2 spike heptad repeat 1 (HR1) with C-terminal poly-his tag (SARS-CoV-2)
Test: SPR

“SARS-CoV-2 spike heptad repeat 2 (HR2) peptide” was tested, and the Kd was 2.24 nM.
